# Reference: article PMC11417369, “DNA sequence and chromatin differentiate sequence-specific transcription factor binding in the human malaria parasite Plasmodium falciparum”
# B1: GTGCAC_site10325 (dsDNA)
# DNA 1: TATATACATGTGAGAGTGCATATAGACATAAAAAAT
# DNA 2: ATTTTTTATGTCTATATGCACTCTCACATGTATATA
# B2: GTGCAC_negctrl_site531 (dsDNA)
# DNA 1: AAATAAATTAAAATAAATTAAATTAAATTAGCATTA
# DNA 2: TAATGCTAATTTAATTTAATTTATTTTAATTTATTT
# B3: GTGCAC_negctrl_site662 (dsDNA)
# DNA 1: TTTTAATGAAATATCAAAAAAATTTATGATTTCAAA
# DNA 2: TTTGAAATCATAAATTTTTTTGATATTTCATTAAAA
# B4: GTGCAC_negctrl_site558 (dsDNA)
# DNA 1: AAATAATATATTCTATATAATAAATTATAAATATAA
# DNA 2: TTATATTTATAATTTATTATATAGAATATATTATTT
# B5: GTGCAC_negctrl_site185 (dsDNA)
# DNA 1: AAAAGAAAAATGTCATATGATATCATATATTTTATA
# DNA 2: TATAAAATATATGATATCATATGACATTTTTCTTTT
# B6: GTGCAC_negctrl_site309 (dsDNA)
# DNA 1: AATGATGTTGTATTGTTTCGATATAACATCTAATTT
# DNA 2: AAATTAGATGTTATATCGAAACAATACAACATCATT
# B7: GTGCAC_negctrl_site587 (dsDNA)
# DNA 1: AAAAAAATAAAATTATATAAAATAAATTTTTATAAT
# DNA 2: ATTATAAAAATTTATTTTATATAATTTTATTTTTTT
# B8: GTGCAC_negctrl_site37 (dsDNA)
# DNA 1: AATAAATAAATAAATTAATAAATTAATAAATTAATA
# DNA 2: TATTAATTTATTAATTTATTAATTTATTTATTTATT
# B9: GTGCAC_negctrl_site256 (dsDNA)
# DNA 1: AATGATTTTAAATGAACATAATTTATATTCATAACA
# DNA 2: TGTTATGAATATAAATTATGTTCATTTAAAATCATT
# B10: GTGCAC_negctrl_site161 (dsDNA)
# DNA 1: AGAAAAAAAAAAAAAAATAAAAAAATAAATAAATAA
# DNA 2: TTATTTATTTATTTTTTTATTTTTTTTTTTTTTTCT
# B11: GTGCAC_negctrl_site139 (dsDNA)
# DNA 1: TGATGAAAATCTACATGAATGTTTTTATATCTATAT
# DNA 2: ATATAGATATAAAAACATTCATGTAGATTTTCATCA
# B12: GTGCAC_negctrl_site307 (dsDNA)
# DNA 1: AATAATAAACACAATCAAATAAAATATGAAATATAA
# DNA 2: TTATATTTCATATTTTATTTGATTGTGTTTATTATT
# B13: GTGCAC_negctrl_site234 (dsDNA)
# DNA 1: GACAAAAAATTAAAATAAAATAATAATATAATAAAA
# DNA 2: TTTTATTATATTATTATTTTATTTTAATTTTTTGTC
# B14: GTGCAC_negctrl_site123 (dsDNA)
# DNA 1: TCCTTAAAAATCTAAAAAGAAAAAAACATATATTTT
# DNA 2: AAAATATATGTTTTTTTCTTTTTAGATTTTTAAGGA
# B15: GTGCAC_negctrl_site345 (dsDNA)
# DNA 1: TTTTTCTATATTTTCTTTTATAAAATATATAATTTT
# DNA 2: AAAATTATATATTTTATAAAAGAAAATATAGAAAAA
# B16: GTGCAC_negctrl_site156 (dsDNA)
# DNA 1: TAACTTTTTTTTTTTTTTTTTTAACTTTTATGTAAT
# DNA 2: ATTACATAAAAGTTAAAAAAAAAAAAAAAAAAGTTA
# B17: GTGCAC_negctrl_site643 (dsDNA)
# DNA 1: TGTAGTCATTAGTCAAATTAGAATTAAATATATATT
# DNA 2: AATATATATTTAATTCTAATTTGACTAATGACTACA
# B18: GTGCAC_negctrl_site664 (dsDNA)
# DNA 1: AAAAAAAAAAAGATAAATACAAGTTACACAAAAAAA
# DNA 2: TTTTTTTGTGTAACTTGTATTTATCTTTTTTTTTTT
# B19: GTGCAC_negctrl_site286 (dsDNA)
# DNA 1: TCCTATCATTTATATTTTACTACATAATATTGATAA
# DNA 2: TTATCAATATTATGTAGTAAAATATAAATGATAGGA
# B20: GTGCAC_negctrl_site193 (dsDNA)
# DNA 1: GCATATATTATATATTTATTTATTTTTTTTTTTTAA
# DNA 2: TTAAAAAAAAAAAATAAATAAATATATAATATATGC
# B21: GTGCAC_negctrl_site473 (dsDNA)
# DNA 1: GGGTCAAGTAAGCTGTTCCTCTTTTTCTTTCTCACT
# DNA 2: AGTGAGAAAGAAAAAGAGGAACAGCTTACTTGACCC
# B22: GTGCAC_negctrl_site616 (dsDNA)
# DNA 1: TTATTTTTATTATAAATTATAAAATATAAATAAATA
# DNA 2: TATTTATTTATATTTTATAATTTATAATAAAAATAA
# B23: GTGCAC_negctrl_site80 (dsDNA)
# DNA 1: TATTTTTTTTTCTTTTTATATATAATAATCTTCATT
# DNA 2: AATGAAGATTATTATATATAAAAAGAAAAAAAAATA
# B24: GTGCAC_negctrl_site370 (dsDNA)
# DNA 1: AATATATGGTTTCATGATATTAAATTCAATTTAATG
# DNA 2: CATTAAATTGAATTTAATATCATGAAACCATATATT
# B25: GTGCAC_negctrl_site543 (dsDNA)
# DNA 1: AAATGTGTAAATATAATTAGTTTCACAAAACAAATA
# DNA 2: TATTTGTTTTGTGAAACTAATTATATTTACACATTT
# B26: GTGCAC_negctrl_site589 (dsDNA)
# DNA 1: TTCTTTAATAAAATAATCTCAAAGAAAATTTTTTCT
# DNA 2: AGAAAAAATTTTCTTTGAGATTATTTTATTAAAGAA
# B27: GTGCAC_negctrl_site203 (dsDNA)
# DNA 1: TTGATGTATACAATGTAGATTATTTAATATTTCAAT
# DNA 2: ATTGAAATATTAAATAATCTACATTGTATACATCAA
# B28: GTGCAC_negctrl_site311 (dsDNA)
# DNA 1: ATAAAATACCCTGATCTATTACATATTATATTCTGC
# DNA 2: GCAGAATATAATATGTAATAGATCAGGGTATTTTAT
# B29: GTGCAC_negctrl_site494 (dsDNA)
# DNA 1: AAGTTTAAGAAATAATTCATATTTACTTCCATCCTC
# DNA 2: GAGGATGGAAGTAAATATGAATTATTTCTTAAACTT
# B30: GTGCAC_negctrl_site225 (dsDNA)
# DNA 1: AAATGAATAAAATTTATTTATAAAAGAAAAATCACA
# DNA 2: TGTGATTTTTCTTTTATAAATAAATTTTATTCATTT
# B31: GTGCAC_negctrl_site726 (dsDNA)
# DNA 1: GAAAACATTAAAAGTTAGATCATAAGAAAAGAATAT
# DNA 2: ATATTCTTTTCTTATGATCTAACTTTTAATGTTTTC
# B32: GTGCAC_negctrl_site611 (dsDNA)
# DNA 1: ATCGAAATTTTAGAATATATATGATGTTACTTAAGT
# DNA 2: ACTTAAGTAACATCATATATATTCTAAAATTTCGAT
# Target: AP2-I D3 (Plasmodium falciparum, UniProt Q8IJW6 910-1027)
# Test: gcPBM; about 25 ug protein; PBS, 1% milk, 0.2 mg/ml BSA, salmon testes DNA, 0.03% Triton X-100
# Details: tags: N-terminal GST (pGEX-4T-1), kept; label: surface-attached array probe
row,Binder,binding signal
1,B1,"10 ln median PBM intensity, better of two orientations"
2,B2,"6.62 ln median PBM intensity, better of two orientations"
3,B3,"6.64 ln median PBM intensity, better of two orientations"
4,B4,"6.74 ln median PBM intensity, better of two orientations"
5,B5,"6.79 ln median PBM intensity, better of two orientations"
6,B6,"6.82 ln median PBM intensity, better of two orientations"
7,B7,"6.82 ln median PBM intensity, better of two orientations"
8,B8,"6.84 ln median PBM intensity, better of two orientations"
9,B9,"6.86 ln median PBM intensity, better of two orientations"
10,B10,"6.87 ln median PBM intensity, better of two orientations"
11,B11,"6.88 ln median PBM intensity, better of two orientations"
12,B12,"6.89 ln median PBM intensity, better of two orientations"
13,B13,"6.9 ln median PBM intensity, better of two orientations"
14,B14,"6.9 ln median PBM intensity, better of two orientations"
15,B15,"6.92 ln median PBM intensity, better of two orientations"
16,B16,"6.93 ln median PBM intensity, better of two orientations"

row,Binder,binding signal
1,B17,"6.93 ln median PBM intensity, better of two orientations"
2,B18,"6.94 ln median PBM intensity, better of two orientations"
3,B19,"6.95 ln median PBM intensity, better of two orientations"
4,B20,"6.96 ln median PBM intensity, better of two orientations"
5,B21,"6.97 ln median PBM intensity, better of two orientations"
6,B22,"7 ln median PBM intensity, better of two orientations"
7,B23,"7 ln median PBM intensity, better of two orientations"
8,B24,"7.01 ln median PBM intensity, better of two orientations"
9,B25,"7.01 ln median PBM intensity, better of two orientations"
10,B26,"7.02 ln median PBM intensity, better of two orientations"
11,B27,"7.03 ln median PBM intensity, better of two orientations"
12,B28,"7.03 ln median PBM intensity, better of two orientations"
13,B29,"7.03 ln median PBM intensity, better of two orientations"
14,B30,"7.04 ln median PBM intensity, better of two orientations"
15,B31,"7.04 ln median PBM intensity, better of two orientations"
16,B32,"7.04 ln median PBM intensity, better of two orientations"
